# Measurements from the Immune Epitope Database (IEDB).
# Columns and labels:
# HLA-A*02:01 [1] = test: IEDB peptide-MHC binding, purified MHC/competitive/radioactivity; filed as Kd, often an IC50 or EC50 that approximates it; ≥ and ≤ were set here for values at or beyond the usual limits of such assays
# HLA-B*46:01 = test: IEDB peptide-MHC binding, purified MHC/direct/fluorescence; filed as Kd, often an IC50 or EC50 that approximates it; ≥ and ≤ were set here for values at or beyond the usual limits of such assays; details: source organism: West Nile virus
# HLA-A*01:01 = test: as above; details: source organism: Pseudomonas aeruginosa UCBPP-PA14
# HLA-A*02:01 [2] = test: as above; details: source organism: Pseudomonas aeruginosa UCBPP-PA14
# HLA-A*03:01 = test: as above; details: source organism: Pseudomonas aeruginosa UCBPP-PA14
# HLA-A*11:01 = test: as above; details: source organism: Pseudomonas aeruginosa UCBPP-PA14
# HLA-A*26:01 = test: as above; details: source organism: Pseudomonas aeruginosa UCBPP-PA14
# HLA-A*31:01 = test: as above; details: source organism: Pseudomonas aeruginosa UCBPP-PA14
# HLA-A*69:01 = test: as above; details: source organism: Pseudomonas aeruginosa UCBPP-PA14
# HLA-B*07:02 [3] = test: as above; details: source organism: Pseudomonas aeruginosa UCBPP-PA14
# HLA-B*08:01 [4] = test: as above; details: source organism: Pseudomonas aeruginosa UCBPP-PA14
# HLA-B*15:01 = test: as above; details: source organism: Pseudomonas aeruginosa UCBPP-PA14
# HLA-B*27:05 = test: as above; details: source organism: Pseudomonas aeruginosa UCBPP-PA14
# HLA-B*58:01 = test: as above; details: source organism: Pseudomonas aeruginosa UCBPP-PA14
# HLA-B*08:01 [5] = test: IEDB peptide-MHC binding, purified MHC/competitive/radioactivity; filed as Kd, often an IC50 or EC50 that approximates it; ≥ and ≤ were set here for values at or beyond the usual limits of such assays; details: source organism: Vaccinia virus WR
# HLA-A*02:02 = test: as above
# HLA-A*02:03 = test: as above; details: source organism: Trypanosoma cruzi
# HLA-A*02:06 = test: as above
# HLA-A*68:02 = test: as above
# HLA-B*07:02 [6] = test: as above; details: source organism: Vaccinia virus WR
# HLA-B*35:01 = test: as above; details: source organism: Vaccinia virus WR
# HLA-B*51:01 = test: as above; details: source organism: Vaccinia virus WR
# HLA-B*53:01 = test: as above; details: source organism: Vaccinia virus WR
# HLA-B*54:01 = test: as above; details: source organism: Vaccinia virus WR
# [7] = source organism: Trypanosoma cruzi
sequence,measurement,setting,value
AAGLQDCTMLV,Kd,HLA-A*02:01 [1]; source organism: Hepatitis C virus (isolate 1),≥ 50 µM
AMFEEQNQW,Kd,HLA-B*46:01,≥ 20 µM
ANPGRVKDW,Kd,HLA-A*01:01,≥ 20 µM
same,Kd,HLA-A*02:01 [2],≥ 20 µM
same,Kd,HLA-A*03:01,≥ 20 µM
same,Kd,HLA-A*11:01,≥ 20 µM
same,Kd,HLA-A*26:01,≥ 20 µM
same,Kd,HLA-A*31:01,≥ 20 µM
same,Kd,HLA-A*69:01,≥ 20 µM
same,Kd,HLA-B*07:02 [3],≥ 20 µM
same,Kd,HLA-B*08:01 [4],≥ 20 µM
same,Kd,HLA-B*15:01,≥ 20 µM
same,Kd,HLA-B*27:05,≥ 20 µM
same,Kd,HLA-B*58:01,≥ 20 µM
EARVEFGPL,Kd,HLA-B*08:01 [5],0.177 µM
ELLRPTTVV,Kd,HLA-A*02:01 [1]; [7],6.71 µM
same,Kd,HLA-A*02:02; [7],6.01 µM
same,Kd,HLA-A*02:03,1.2 µM
same,Kd,HLA-A*02:06; [7],1.88 µM
same,Kd,HLA-A*68:02; [7],0.0918 µM
ELQAALARV,Kd,HLA-A*02:01 [1]; source organism: Homo sapiens,0.558 µM
same,Kd,HLA-A*02:02; source organism: Homo sapiens,0.117 µM
same,Kd,HLA-A*02:06; source organism: Homo sapiens,0.0405 µM
same,Kd,HLA-A*68:02; source organism: Homo sapiens,0.00206 µM
EPLSPDTCL,Kd,HLA-B*07:02 [6],10.5 µM
same,Kd,HLA-B*35:01,0.522 µM
same,Kd,HLA-B*51:01,0.211 µM
same,Kd,HLA-B*53:01,0.189 µM
same,Kd,HLA-B*54:01,≥ 78.1 µM
